According to US10184137B2, “Method of producing isoprene monomer” (AJINOMOTO CO., INC., priority 2014, dated 2019):
Values joined by “and” are separate entries in the source; they are usually repeats but may differ in a detail not shown here. Identical values can stand only once.

Tests used:
[1] = target: T1, Methanosaeta concilii mevalonate kinase (mcl), wild type, SEQ ID NO:6, N-terminal His-tag (Methanothrix soehngenii, UniProt F4BZB3); experiment: biochemical
T1 sequence (F4BZB3 1-317): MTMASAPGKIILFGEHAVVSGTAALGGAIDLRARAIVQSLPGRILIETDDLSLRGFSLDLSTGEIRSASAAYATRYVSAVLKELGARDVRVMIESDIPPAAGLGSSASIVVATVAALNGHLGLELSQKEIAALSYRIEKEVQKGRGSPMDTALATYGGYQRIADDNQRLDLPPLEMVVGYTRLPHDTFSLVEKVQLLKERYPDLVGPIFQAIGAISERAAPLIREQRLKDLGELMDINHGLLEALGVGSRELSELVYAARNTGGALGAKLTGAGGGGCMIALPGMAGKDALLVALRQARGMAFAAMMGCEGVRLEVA

[2] = target: T2, Methanosarcina mazei mevalonate kinase (mma), wild type, SEQ ID NO:12, N-terminal His-tag (Methanosarcina mazei, UniProt Q8PW39); experiment: Inhibition of mma-derived mevalonate kinase by DMAPP, GPP, FPP or DPM; format: biochemical; conditions: 5 mM DMAPP, control 0.21
T2 sequence (Q8PW39 1-301): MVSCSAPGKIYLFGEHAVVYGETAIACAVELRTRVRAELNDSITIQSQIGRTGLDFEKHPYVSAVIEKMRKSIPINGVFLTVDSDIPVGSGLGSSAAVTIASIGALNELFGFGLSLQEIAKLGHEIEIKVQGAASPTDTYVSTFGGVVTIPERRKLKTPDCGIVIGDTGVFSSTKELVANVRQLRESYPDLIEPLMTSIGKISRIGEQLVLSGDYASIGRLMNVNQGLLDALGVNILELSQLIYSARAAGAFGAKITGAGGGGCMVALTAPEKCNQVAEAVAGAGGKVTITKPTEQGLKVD
Protocol: (§1) Km value was calculated by Lineweaver-Burk plot.
(§2) Since GPP and FPP solutions contain methanol, methanol which was needed to keep the same methanol level at the addition to the reaction system was added to the reaction solution, which was designated as control.
(§3) Effect of 1 mM diphosphomevalonate (DPM) on each enzyme was also studied.

[3] = target: Methanocella paludicola mevalonate kinase (mpd), wild type, SEQ ID NO:1, N-terminal His-tag (Methanocella paludicola, UniProt D1YZ39); experiment: Inhibition of mpd-derived mevalonate kinase by DMAPP, GPP, FPP or DPM; format: biochemical; conditions: 5 mM DMAPP, control 0.15734
Protocol: as §1, §2, §3

[4] = target: T1, Methanosaeta concilii mevalonate kinase (mcl), wild type, SEQ ID NO:6, N-terminal His-tag; experiment: Inhibition of mcl-derived mevalonate kinase by DMAPP, GPP, FPP or DPM; format: biochemical
Protocol: as §1, §2, §3

[5] = target: Nitrosopumilus maritimus mevalonate kinase (nmr), wild type, SEQ ID NO:9, N-terminal His-tag (Nitrosopumilus maritimus, UniProt A9A427); experiment: Inhibition of nmr-derived mevalonate kinase by DMAPP, GPP, FPP or DPM; format: biochemical; conditions: 5 mM DMAPP, control 0.2438
Protocol: as §1, §2, §3

[6] = target: Corynebacterium variabile mevalonate kinase (cva), wild type, SEQ ID NO:3, N-terminal His-tag (Corynebacterium variabile, UniProt A0A0X2NLH5); experiment: Inhibition of cva-derived mevalonate kinase by DMAPP, GPP, FPP or DPM; format: biochemical; conditions: 5 mM DMAPP, control 0.08338
Protocol: as §1, §2, §3

[7] = substrate: Nc1ncnc2c1ncn2[C@@H]1O[C@H](COP(=O)(O)OP(=O)(O)OP(=O)(O)O)[C@@H](O)[C@H]1O; experiment: purified protein, by the assay type; conditions: 5 mM potassium mevalonate, pH 7.6, 30° C., Lineweaver-Burk plot
Protocol: Each obtained plasmid was used for transformation of E. coli BL21(DE3). […] When OD600 reached approximately 0.5, 0.1 mM IPTG (for cva, mma, nmr, and sce) or 1 mM (for mcl and mpd) of IPTG was added, and then the mixture was kept at 20° C. overnight to induce the target protein. […] After centrifugation (28,000×g, 30 min), the supernatant was adsorbed onto His-Trap HP (GE Healthcare) to elute the target protein by linear concentration gradient of Imidazol (final concentration 0.5 M). Obtained protein was dialyzed by using an external solution composed of 20 mM Tris-HCl (pH 8.0) containing 1 mM DTT and 50 mM NaCl. Dialyzed protein was designated as purified enzyme. Protein quantity was measured with Bio-RAD protein assay kit and BSA standard condition.
Decrease in absorbance at 340 nm at 30° C. was measured to determine the enzyme activity. JASCO Corporation's spectrophotometer (V-650) was used in this study. […] Km value was calculated by Lineweaver-Burk plot.

mevalonate kinase [8] = experiment: Measurement of activity and Km value of purified mevalonate kinase (PK/LDH coupled, 340 nm); format: biochemical
Protocol: Each obtained plasmid was used for transformation of E. coli BL21(DE3). […] When OD600 reached approximately 0.5, 0.1 mM IPTG (for cva, mma, nmr, and sce) or 1 mM (for mcl and mpd) of IPTG was added, and then the mixture was kept at 20° C. overnight to induce the target protein. Harvested cells were suspended in buffer solution A (50 mM sodium phosphate, 0.3 M NaCl and 20 mM Imidazol), and then the cells were disrupted with an ultrasonic disruptor (TOMY: UD-201). […] After centrifugation (28,000×g, 30 min), the supernatant was adsorbed onto His-Trap HP (GE Healthcare) to elute the target protein by linear concentration gradient of Imidazol (final concentration 0.5 M). Obtained protein was dialyzed by using an external solution composed of 20 mM Tris-HCl (pH 8.0) containing 1 mM DTT and 50 mM NaCl. Dialyzed protein was designated as purified enzyme. Protein quantity was measured with Bio-RAD protein assay kit and BSA standard condition.
(§4) Decrease in absorbance at 340 nm at 30° C. was measured to determine the enzyme activity. JASCO Corporation's spectrophotometer (V-650) was used in this study. Millimolar extinction coefficient of NADH used in this study was 6.22 mM^−1 cm^−1. […] Km value was calculated by Lineweaver-Burk plot.
Measured activity of each enzyme (JABS/min) was presented on Table 9 for the calculation of apparent Km value (Km app.) of each enzyme. Table 10 presents Km app., Vmax, molecular weight of the enzyme protein, protein concentration in the enzyme solution and calculated kcat.
Activity was indicated by dABS/min when 10 μl of each enzyme was added to 1 ml of reaction solution.

mevalonate kinase [9] = experiment: Inhibition of each mevalonate kinase by DMAPP, GPP, FPP or DPM; format: biochemical
Protocol: as §2
Respective effect of the added 5 mM DMAPP, 0.1 mM GPP, and 0.1 mM FPP on the activity of each enzyme was measured. […] Contrarily, mcl-derived enzyme was activated by 5 mM DMAPP and its activity increased by 20% from that of the control.
Activity when 10 μl of each enzyme was added to 1 ml of the reaction system was represented by dABS/min
as §3

mevalonate kinase [10] = experiment: Examination of product inhibition on each mevalonate kinase (absorbance at 386 nm, PMK addition); format: biochemical; conditions: 1 mM mevalonate as substrate; in words
Protocol: When decrease in absorbance stopped, purified PMK was added to measure further decrease in absorbance at 386 nm.
FIG. 18 presents the SDS-PAGE profile of the purified PMK. […] Then, absorbance decreased further and finally absorbance at 386 nm decreased to 0.3 in all reaction systems. Therefore, it is inferred that mevalonate is converted into diphosphomevalonate via phosphomevalonate by adding PMK to each MVK.

[11] = system: mcl-derived mevalonate kinase; experiment: Effect of IPP and low-concentration DMAPP on mcl-derived mevalonate kinase activity
mevalonate kinase [12] = experiment: Expression analysis and activity confirmation of His-tagged mevalonate kinases from pET-21a(+) and pET-28b(+); format: biochemical; conditions: His-spinTrap eluate after dialysis, 10 μl enzyme solution
Protocol: Each obtained plasmid was used for transformation of E. coli BL21(DE3). […] When OD600 reached approximately 0.5, IPTG was added to the solution to final concentration of 1 mM. It was then cultured overnight at 20° C. Harvested cells were suspended in the buffer solution consisting of 50 mM sodium phosphate, 0.3 M NaCl and 20 mM Imidazol. Then the cells were disrupted with an ultrasonic disruptor (TOMY: UD-201, output level=3.5). After centrifugation (20,000×g, 20 min), disrupted cells were adsorbed to His-spinTrap (GE Healthcare). After washing with the same buffer solution, protein was eluted with the buffer solution consisting of 50 mM sodium phosphate, 0.3 M NaCl and 0.5 M imidazole (pH7.5). Eluate was dialyzed overnight at 4° C. with the external solution composed of 20 mM Tris-HCl (pH7.5) and 50 mM NaCl. Then, enzyme activity of each eluate in the internal dialysis solution was measured.
Activity of the internal dialysate (about 0.2 ml each) was measured with the 10 μl of enzyme solution (Table 8). Enzyme expression level was compared on activity basis between pET-21a(+) and pET-28b(+). […] It is inferred that expression level is higher in pET-28b(+). Therefore, purified enzyme expressed in pET-28b(+) was used in the further examinations.
Values were presented by decrease in absorbance per unit time per 10 μl in the enzyme reaction measurement system (dABS/min/10 μl).
as §4

Nitrosopumilus maritimus mevalonate kinase (nmr), wild type, SEQ ID NO:9, N-terminal His-tag, sequence (A9A427 1-313): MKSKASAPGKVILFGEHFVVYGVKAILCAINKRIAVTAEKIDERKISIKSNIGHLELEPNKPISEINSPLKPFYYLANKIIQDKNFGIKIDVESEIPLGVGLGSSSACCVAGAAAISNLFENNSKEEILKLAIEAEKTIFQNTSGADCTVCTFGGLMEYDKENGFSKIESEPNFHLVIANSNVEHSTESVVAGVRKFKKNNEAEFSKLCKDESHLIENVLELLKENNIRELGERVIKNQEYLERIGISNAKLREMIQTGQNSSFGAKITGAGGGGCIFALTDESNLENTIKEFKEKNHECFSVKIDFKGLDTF
Corynebacterium variabile mevalonate kinase (cva), wild type, SEQ ID NO:3, N-terminal His-tag, sequence (A0A0X2NLH5 entry or part of it): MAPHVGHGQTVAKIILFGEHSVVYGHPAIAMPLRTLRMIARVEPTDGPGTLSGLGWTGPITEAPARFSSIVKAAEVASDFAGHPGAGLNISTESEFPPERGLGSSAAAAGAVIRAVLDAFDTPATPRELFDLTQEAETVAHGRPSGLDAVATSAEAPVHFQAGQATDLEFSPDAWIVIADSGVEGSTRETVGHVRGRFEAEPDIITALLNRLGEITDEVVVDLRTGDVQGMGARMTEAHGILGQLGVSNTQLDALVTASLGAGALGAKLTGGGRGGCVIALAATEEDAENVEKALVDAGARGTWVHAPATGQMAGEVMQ

C=C(C)CCOP(=O)(O)OP(=O)(O)O.N.N.N [IPP, Isopentenyl pyrophosphate tri-ammonium salt]
Enzyme activity with 33.6 μM IPP ([1]; mcl, 33.6 μM IPP, control (MeOH) 0.15939): 0.158 dABS/min
Enzyme activity with 168 μM IPP ([1]; mcl, 168 μM IPP, control (MeOH) 0.15939): 0.1606 dABS/min

CC(C)=CCOP(=O)(O)OP(=O)(O)O.N.N.N [DMAPP, Dimethylallyl diphosphate ammonium salt]
Enzyme activity with 5 mM DMAPP [2]: 0.1904 dABS/min
Enzyme activity with 5 mM DMAPP [3]: 0.1528 dABS/min
Enzyme activity with 5 mM DMAPP ([4]; mcl, 5 mM DMAPP, control 0.1482): 0.1806 dABS/min
activation at 5000 µM ([4]; read-out: Increase of activity from that of the control): 20%
Enzyme activity with 33.6 μM DMAPP ([1]; mcl, 33.6 μM DMAPP, control (H2O) 0.15403): 0.1527 dABS/min
Enzyme activity with 168 μM DMAPP ([1]; mcl, 168 μM DMAPP, control (H2O) 0.15403): 0.1552 dABS/min
activation at 5000 µM ([1]; read-out: Increase of relative activity): 20%
Enzyme activity with 5 mM DMAPP [5]: 0.231 dABS/min
Enzyme activity with 5 mM DMAPP [6]: 0.0786 dABS/min

B1: Methanocella paludicola mevalonate kinase (mpd), wild type, SEQ ID NO:1, N-terminal His-tag (Methanocella paludicola SANAE) (protein)
chain: MTMCSAPGKVFLFGEHAVVYGKRAIACAIDLRTTVEVSRKSRGVHIHSAFKDEPDKNLYIKTAVKRMQKCADIRNVNIAVSSRIPVASGLGSSAAVTVATIGALNEEFSAGLSKKDIAYMAYQTELEVQGAASPTDTFVSTMGGTVVVPDMRTLPPITCGIVVGHTGISKSTSRMVSRVRTLKEKYPDVIDGIMDSIGDISARGEDLIKQNDYRSIGELMNVNQGLLDALGITIPELSLQIYAARQHGAYGAKITGAGGGGCMVAICDDKNCKEIATAIGRSYGDSFISKPTAEGIFIQ
Km ([7]; other: mpd): 119 ± 2.1 µM

B2: Methanosaeta concilii mevalonate kinase (mcl), wild type, SEQ ID NO:6, N-terminal His-tag (Methanothrix soehngenii GP6) (protein)
chain: MTMASAPGKIILFGEHAVVSGTAALGGAIDLRARAIVQSLPGRILIETDDLSLRGFSLDLSTGEIRSASAAYATRYVSAVLKELGARDVRVMIESDIPPAAGLGSSASIVVATVAALNGHLGLELSQKEIAALSYRIEKEVQKGRGSPMDTALATYGGYQRIADDNQRLDLPPLEMVVGYTRLPHDTFSLVEKVQLLKERYPDLVGPIFQAIGAISERAAPLIREQRLKDLGELMDINHGLLEALGVGSRELSELVYAARNTGGALGAKLTGAGGGGCMIALPGMAGKDALLVALRQARGMAFAAMMGCEGVRLEVA
Km ([7]; other: mcl): 74 ± 1.4 µM

B3: mcl: mevalonate kinase derived from Methanosaeta concilii (SEQ ID NO:6), His-tagged purified enzyme (protein, listed as Methanosaeta concilii)
chain: MTMASAPGKIILFGEHAVVSGTAALGGAIDLRARAIVQSLPGRILIETDDLSLRGFSLDLSTGEIRSASAAYATRYVSAVLKELGARDVRVMIESDIPPAAGLGSSASIVVATVAALNGHLGLELSQKEIAALSYRIEKEVQKGRGSPMDTALATYGGYQRIADDNQRLDLPPLEMVVGYTRLPHDTFSLVEKVQLLKERYPDLVGPIFQAIGAISERAAPLIREQRLKDLGELMDINHGLLEALGVGSRELSELVYAARNTGGALGAKLTGAGGGGCMIALPGMAGKDALLVALRQARGMAFAAMMGCEGVRLEVA
modifications: His-tag
dABS/min at ATP 0.04 mM (mevalonate kinase [8]; ATP 0.04 mM, potassium mevalonate 5 mM, 10 μl enzyme in 1 ml, replicate values): 0.06058 dABS/min and 0.06029 dABS/min and 0.05985 dABS/min
dABS/min at ATP 0.2 mM (mevalonate kinase [8]; ATP 0.2 mM, potassium mevalonate 5 mM, 10 μl enzyme in 1 ml, replicate values): 0.1223 dABS/min and 0.1222 dABS/min (2×)
dABS/min at ATP 1 mM (mevalonate kinase [8]; ATP 1 mM, potassium mevalonate 5 mM, 10 μl enzyme in 1 ml, replicate values): 0.1584 dABS/min (2×) and 0.1585 dABS/min
affinity to mevalonate and ATP compared with the other enzymes (mevalonate kinase [8]; in words): higher affinity to mevalonate and ATP than the other enzymes
dABS/min at mev 0.002 mM (mevalonate kinase [8]; potassium mevalonate 0.002 mM, ATP 5 mM, 10 μl enzyme in 1 ml, replicate values): 0.02277 dABS/min and 0.02381 dABS/min and 0.02265 dABS/min
dABS/min at mev 0.01 mM (mevalonate kinase [8]; potassium mevalonate 0.01 mM, ATP 5 mM, 10 μl enzyme in 1 ml, replicate values): 0.08427 dABS/min and 0.0843 dABS/min and 0.08431 dABS/min
dABS/min at mev 0.04 mM (mevalonate kinase [8]; potassium mevalonate 0.04 mM, ATP 5 mM, 10 μl enzyme in 1 ml, replicate values): 0.1675 dABS/min and 0.1677 dABS/min and 0.1671 dABS/min
dABS/min at mev 0.2 mM (mevalonate kinase [8]; potassium mevalonate 0.2 mM, ATP 5 mM, 10 μl enzyme in 1 ml, replicate values): 0.2123 dABS/min (2×) and 0.2125 dABS/min
enzyme activity, Control (mevalonate kinase [9]; Table 11 control without terpenyl diphosphate (methanol added)): 0.1482 dABS/min
enzyme activity, Control (mevalonate kinase [9]; Table 12 control without DPM): 0.1373 dABS/min
effect of 5 mM DMAPP on enzyme activity (mevalonate kinase [9]; in words): activated
course of decrease in absorbance at 386 nm until PMK addition (mevalonate kinase [10]): almost linear decrease in absorbance
enzyme activity, Control (MeOH) ([11]; 70% methanol control for IPP): 0.1594 dABS/min
enzyme activity, Control (H2O) ([11]; control for DMAPP): 0.154 dABS/min
enzyme activity, pET21 system (C terminal Tag) (mevalonate kinase [12]): 0.003 dABS/min/10 μl
enzyme activity, pET28 system (N terminal Tag) (mevalonate kinase [12]): 0.023 dABS/min/10 μl
